Laboratory results as given in patent US20250043302A1, “MUTATED HYDROXYPHENYLPYRUVATE DIOXYGENASE POLYPEPTIDE, AND CODING GENE AND USE THEREOF” (BEIJING DABEINONG BIOTECHNOLOGY CO., LTD., priority 2021, published 2025).
Residue numbers refer to the chain shown, from its start. In names and notes the source's numbering stands.

Assays:
Format in all cases: in vivo
[1] = system: Arabidopsis thaliana T1 plants; assay: Mesotrione tolerance of transgenic Arabidopsis thaliana T1 plants (spray, bleached leaf area grade, damage score); parameters: Scores: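 damage score 0-100 computed as Σ(N×S)/(T×M)×100 over grades 0-3 with higher meaning more damage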; details: for Grade 0 (classification and statistics of the grade of pesticide damage; number of plants) / Grade 1 (classification and statistics of the grade of pesticide damage; number of plants) / Grade 2 (classification and statistics of the grade of pesticide damage; number of plants) / Grade 3 (classification and statistics of the grade of pesticide damage; number of plants): 16 plants; for Classification and statistics of the grade of pesticide damage Grade 0 / Classification and statistics of the grade of pesticide damage Grade 1 / Classification and statistics of the grade of pesticide damage Grade 2 / Classification and statistics of the grade of pesticide damage Grade 3: number of plants in grade
Method in brief: (§1)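 Damage graded 0–3 from the proportion of bleached leaf area 7 days after spraying. Plants were glufosinate-selected T1 lines, 18 days after sowing, plus vector and wild-type controls. Rates: mesotrione 52.5–420, isoxaflutole 35–280, topramezone 25–200 g ai/ha, with water (0×).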

[2] = system: Arabidopsis thaliana T1 plants; assay: Isoxaflutole tolerance of transgenic Arabidopsis thaliana T1 plants (spray, bleached leaf area grade, damage score); parameters: Scores (pesticide damage): scale not given here; details: for Classification and statistics of the grade of pesticide damage: Grade 0 (number of plants) / Classification and statistics of the grade of pesticide damage: Grade 1 (number of plants) / Classification and statistics of the grade of pesticide damage: Grade 2 (number of plants) / Classification and statistics of the grade of pesticide damage: Grade 3 (number of plants): 16 plants; for Classification and statistics of the grade of pesticide damage Grade 0 / Classification and statistics of the grade of pesticide damage Grade 1 / Classification and statistics of the grade of pesticide damage Grade 2 / Classification and statistics of the grade of pesticide damage Grade 3: number of plants in grade
Method in brief: as §1

[3] = system: Arabidopsis thaliana T1 plants; assay: Topramezone tolerance of transgenic Arabidopsis thaliana T1 plants (spray, bleached leaf area grade, damage score); details: for Classification and statistics of the grade of pesticide damage: Grade 0 / Classification and statistics of the grade of pesticide damage: Grade 1 / Classification and statistics of the grade of pesticide damage: Grade 2 / Classification and statistics of the grade of pesticide damage: Grade 3: number of plants; for Classification and statistics of the grade of pesticide damage Grade 0: number of plants at grade 0; for Classification and statistics of the grade of pesticide damage Grade 1: number of plants at grade 1; for Classification and statistics of the grade of pesticide damage Grade 2: number of plants at grade 2; for Classification and statistics of the grade of pesticide damage Grade 3: number of plants at grade 3
Method in brief: as §1

[4] = mesotrione 52.5 g ai/ha, Arabidopsis thaliana T1 plants
[5] = mesotrione 105 g ai/ha, Arabidopsis thaliana T1 plants
[6] = isoxaflutole 35 g ai/ha (0.5x field concentration), spray, Arabidopsis thaliana T1 plants
[7] = isoxaflutole 70 g ai/ha (1x field concentration), spray, Arabidopsis thaliana T1 plants
[8] = topramezone 25 g ai/ha (1×), 7 DAT, Table 4
[9] = topramezone 100 g ai/ha (4×), 7 DAT, Table 4
[10] = pesticide damage score 0-100, topramezone 25 g ai/ha (1×), 7 DAT, Table 4
[11] = pesticide damage score 0-100, topramezone 100 g ai/ha (4×), 7 DAT, Table 4
[12] = Table 13, topramezone 25 g ai/ha (1×)
[13] = Table 13, topramezone 100 g ai/ha (4×)

B1: AtHPPDm-F372A-F383W-02: nucleotide sequence encoding Arabidopsis thaliana HPPD with F372A+F383W; vector DBN11733 (nucleic acid)
DNA: ATGGGACATCAGAATGCTGCTGTATCAGAAAATCAAAATCATGATGATGGAGCCGCCTCCTCACCAGGGTTTAAGTTGGTTGGGTTCTCCAAGTTTGTACGGAAGAACCCAAAATCCGACAAGTTCAAGGTTAAACGCTTCCACCACATTGAATTCTGGTGCGGCGACGCCACCAATGTTGCTCGGCGTTTTTCATGGGGTTTAGGCATGAGATTCTCAGCAAAGAGTGACCTGAGCACCGGCAACATGGTTCATGCTAGCTATCTCTTAACATCTGGAGATTTGAGGTTTCTTTTCACGGCGCCGTACTCACCATCACTCTCCGCCGGCGAGATCAAACCCACCACGACTGCAAGCATACCTTCATTTGATCATGGTAGTTGCAGATCCTTCTTCTCGTCGCACGGCCTAGGGGTGCGCGCGGTCGCCATCGAAGTTGAAGATGCAGAATCAGCGTTTAGTATCAGCGTGGCAAATGGAGCTATTCCTTCCTCCCCTCCAATTGTCCTCAATGAGGCTGTAACTATTGCCGAGGTGAAGTTGTATGGAGATGTTGTGCTGAGATATGTTTCTTACAAGGCAGAGGACACTGAGAAATCTGAATTTTTGCCTGGTTTTGAAAGGGTCGAGGATGCTTCAAGTTTTCCTCTTGATTACGGCATACGACGGTTGGATCACGCGGTTGGAAATGTACCAGAACTTGGGCCGGCGCTCACTTATGTGGCTGGTTTCACTGGATTCCATCAATTTGCTGAGTTCACAGCTGATGATGTTGGGACTGCTGAAAGTGGGTTGAACTCTGCAGTCCTCGCCTCTAATGATGAAATGGTGCTCCTCCCGATCAACGAGCCTGTGCATGGCACCAAAAGGAAATCACAAATACAGACATATCTTGAGCACAATGAAGGTGCAGGGCTTCAACATCTTGCACTGATGTCTGAAGACATTTTCCGTACGCTGAGAGAGATGAGGAAGAGAAGTAGTATTGGTGGATTTGACTTCATGCCTTCTCCCCCACCAACTTACTACCAGAACTTGAAGAAGAGGGTTGGTGATGTGCTATCTGATGACCAGATCAAGGAGTGTGAAGAATTGGGCATTCTTGTTGATCGGGACGACCAAGGAACATTACTGCAGATAGCCACAAAACCACTTGGTGACCGCCCCACTATTTGGATTGAGATCATACAAAGAGTCGGCTGCATGATGAAGGATGAGGAAGGAAAAGCATATCAATCTGGTGGTTGTGGCGGCTTTGGGAAAGGAAACTTCTCTGAGCTGTTCAAATCCATCGAGGAGTATGAGAAGACCTTGGAGGCCAAGCAGCTCGTGGGTTGA
modifications: AtHPPDm-F372A-F383W-02 Nucleotide Sequence
notes: vector DBN11733
Resistance evaluation [1, 4]: Moderately
Scores [1, 4]: 21
Grade 0 (classification and statistics of the grade of pesticide damage; number of plants) [1, 4]: 8
Grade 1 (classification and statistics of the grade of pesticide damage; number of plants) [1, 4]: 6
Grade 2 (classification and statistics of the grade of pesticide damage; number of plants) [1, 4]: 2
Grade 3 (classification and statistics of the grade of pesticide damage; number of plants) [1, 4]: 0
Resistance evaluation [1, 5]: Poorly resistant
Scores [1, 5]: 44
Grade 0 (classification and statistics of the grade of pesticide damage; number of plants) [1, 5]: 2
Grade 1 (classification and statistics of the grade of pesticide damage; number of plants) [1, 5]: 8
Grade 2 (classification and statistics of the grade of pesticide damage; number of plants) [1, 5]: 5
Grade 3 (classification and statistics of the grade of pesticide damage; number of plants) [1, 5]: 1
Resistance evaluation [2, 6]: Highly
Scores (pesticide damage) [2, 6]: 15
Classification and statistics of the grade of pesticide damage: Grade 0 (number of plants) [2, 6]: 10
Classification and statistics of the grade of pesticide damage: Grade 1 (number of plants) [2, 6]: 5
Classification and statistics of the grade of pesticide damage: Grade 2 (number of plants) [2, 6]: 1
Classification and statistics of the grade of pesticide damage: Grade 3 (number of plants) [2, 6]: 0
Resistance evaluation [2, 7]: Moderately
Scores (pesticide damage) [2, 7]: 29
Classification and statistics of the grade of pesticide damage: Grade 0 (number of plants) [2, 7]: 5
Classification and statistics of the grade of pesticide damage: Grade 1 (number of plants) [2, 7]: 9
Classification and statistics of the grade of pesticide damage: Grade 2 (number of plants) [2, 7]: 1
Classification and statistics of the grade of pesticide damage: Grade 3 (number of plants) [2, 7]: 1
Classification and statistics of the grade of pesticide damage: Grade 0 [3, 8]: 9
Classification and statistics of the grade of pesticide damage: Grade 1 [3, 8]: 7
Classification and statistics of the grade of pesticide damage: Grade 2 [3, 8]: 0
Classification and statistics of the grade of pesticide damage: Grade 3 [3, 8]: 0
Classification and statistics of the grade of pesticide damage: Grade 0 [3, 9]: 6
Classification and statistics of the grade of pesticide damage: Grade 1 [3, 9]: 7
Classification and statistics of the grade of pesticide damage: Grade 2 [3, 9]: 1
Classification and statistics of the grade of pesticide damage: Grade 3 [3, 9]: 2
Scores [3, 10]: 15
Scores [3, 11]: 31
Resistance evaluation [3, 8]: highly
Resistance evaluation [3, 9]: moderately

B2: AtHPPDm-F372A-02: nucleotide sequence encoding Arabidopsis thaliana HPPD with F372A; vector DBN11731 (nucleic acid)
DNA: B1 DNA with G1175T, G1176T
modifications: AtHPPDm-F372A-02 Nucleotide Sequence
notes: vector DBN11731
Resistance evaluation ([1]; mesotrione 52.5 g ai/ha): Poorly resistant
Scores ([1]; mesotrione 52.5 g ai/ha): 63
Resistance evaluation [1, 4]: Poorly resistant
Scores [1, 4]: 63
Grade 0 (classification and statistics of the grade of pesticide damage; number of plants) [1, 4]: 0
Grade 1 (classification and statistics of the grade of pesticide damage; number of plants) [1, 4]: 5
Grade 2 (classification and statistics of the grade of pesticide damage; number of plants) [1, 4]: 8
Grade 3 (classification and statistics of the grade of pesticide damage; number of plants) [1, 4]: 3
Classification and statistics of the grade of pesticide damage Grade 0 ([1]; mesotrione 52.5 g ai/ha): 0
Classification and statistics of the grade of pesticide damage Grade 1 ([1]; mesotrione 52.5 g ai/ha): 5
Classification and statistics of the grade of pesticide damage Grade 2 ([1]; mesotrione 52.5 g ai/ha): 8
Classification and statistics of the grade of pesticide damage Grade 3 ([1]; mesotrione 52.5 g ai/ha): 3
Resistance evaluation ([1]; mesotrione 105 g ai/ha): Non-resistant
Scores ([1]; mesotrione 105 g ai/ha): 100
Resistance evaluation [1, 5]: Non-resistant
Scores [1, 5]: 100
Grade 0 (classification and statistics of the grade of pesticide damage; number of plants) [1, 5]: 0
Grade 1 (classification and statistics of the grade of pesticide damage; number of plants) [1, 5]: 0
Grade 2 (classification and statistics of the grade of pesticide damage; number of plants) [1, 5]: 0
Grade 3 (classification and statistics of the grade of pesticide damage; number of plants) [1, 5]: 16
Classification and statistics of the grade of pesticide damage Grade 0 ([1]; mesotrione 105 g ai/ha): 0
Classification and statistics of the grade of pesticide damage Grade 1 ([1]; mesotrione 105 g ai/ha): 0
Classification and statistics of the grade of pesticide damage Grade 2 ([1]; mesotrione 105 g ai/ha): 0
Classification and statistics of the grade of pesticide damage Grade 3 ([1]; mesotrione 105 g ai/ha): 16
Resistance evaluation ([2]; isoxaflutole 35 g ai/ha): Poorly
Scores ([2]; isoxaflutole 35 g ai/ha): 52
Resistance evaluation [2, 6]: Poorly
Scores (pesticide damage) [2, 6]: 52
Classification and statistics of the grade of pesticide damage: Grade 0 (number of plants) [2, 6]: 0
Classification and statistics of the grade of pesticide damage: Grade 1 (number of plants) [2, 6]: 9
Classification and statistics of the grade of pesticide damage: Grade 2 (number of plants) [2, 6]: 5
Classification and statistics of the grade of pesticide damage: Grade 3 (number of plants) [2, 6]: 2
Classification and statistics of the grade of pesticide damage Grade 0 ([2]; isoxaflutole 35 g ai/ha): 0
Classification and statistics of the grade of pesticide damage Grade 1 ([2]; isoxaflutole 35 g ai/ha): 9
Classification and statistics of the grade of pesticide damage Grade 2 ([2]; isoxaflutole 35 g ai/ha): 5
Classification and statistics of the grade of pesticide damage Grade 3 ([2]; isoxaflutole 35 g ai/ha): 2
Resistance evaluation ([2]; isoxaflutole 70 g ai/ha): Non-resistant
Scores ([2]; isoxaflutole 70 g ai/ha): 96
Resistance evaluation [2, 7]: Non-resistant
Scores (pesticide damage) [2, 7]: 96
Classification and statistics of the grade of pesticide damage: Grade 0 (number of plants) [2, 7]: 0
Classification and statistics of the grade of pesticide damage: Grade 1 (number of plants) [2, 7]: 0
Classification and statistics of the grade of pesticide damage: Grade 2 (number of plants) [2, 7]: 2
Classification and statistics of the grade of pesticide damage: Grade 3 (number of plants) [2, 7]: 14
Classification and statistics of the grade of pesticide damage Grade 0 ([2]; isoxaflutole 70 g ai/ha): 0
Classification and statistics of the grade of pesticide damage Grade 1 ([2]; isoxaflutole 70 g ai/ha): 0
Classification and statistics of the grade of pesticide damage Grade 2 ([2]; isoxaflutole 70 g ai/ha): 2
Classification and statistics of the grade of pesticide damage Grade 3 ([2]; isoxaflutole 70 g ai/ha): 14
Resistance evaluation [3, 12]: Poorly
Classification and statistics of the grade of pesticide damage Grade 0 [3, 12]: 4
Classification and statistics of the grade of pesticide damage Grade 1 [3, 12]: 4
Classification and statistics of the grade of pesticide damage Grade 2 [3, 12]: 8
Classification and statistics of the grade of pesticide damage Grade 3 [3, 12]: 0
Scores ([3]; Table 13, topramezone 25 g ai/ha (1×), pesticide damage score): 42
Resistance evaluation [3, 13]: Non-resistant
Classification and statistics of the grade of pesticide damage Grade 0 [3, 13]: 0
Classification and statistics of the grade of pesticide damage Grade 1 [3, 13]: 0
Classification and statistics of the grade of pesticide damage Grade 2 [3, 13]: 4
Classification and statistics of the grade of pesticide damage Grade 3 [3, 13]: 12
Scores ([3]; Table 13, topramezone 100 g ai/ha (4×), pesticide damage score): 92
Classification and statistics of the grade of pesticide damage: Grade 0 [3, 8]: 4
Classification and statistics of the grade of pesticide damage: Grade 1 [3, 8]: 4
Classification and statistics of the grade of pesticide damage: Grade 2 [3, 8]: 8
Classification and statistics of the grade of pesticide damage: Grade 3 [3, 8]: 0
Classification and statistics of the grade of pesticide damage: Grade 0 [3, 9]: 0
Classification and statistics of the grade of pesticide damage: Grade 1 [3, 9]: 0
Classification and statistics of the grade of pesticide damage: Grade 2 [3, 9]: 4
Classification and statistics of the grade of pesticide damage: Grade 3 [3, 9]: 12
Scores [3, 10]: 42
Scores [3, 11]: 92
Resistance evaluation [3, 8]: poorly
Resistance evaluation [3, 9]: non-resistant (non-resistant plants (scores 68-100))
